Assay results reported in patent US20140087995A1 (published 2014).
Numbered stars: 1 amine (or outer) side, 2 acyl side, 3 side chain; on linkers, the order of the positions; unused ones are H or OH. Bridge positions count the residues as written; N and C are the ends. Side chains are listed from the residue outwards. Ends that are not written are not given here. * marks the point of attachment. C20 diacid = O=C(O)CCCCCCCCCCCCCCCCCCC(=O)*; γGlu = O=C(O)[C@H](CCC(=O)[*:2])N[*:1]; AEEA = NCCOCCOCC(=O)O

T1: rat calcitonin receptor (rat, UniProt P32214 25-516)
T1 construct: whole, on cells; Membranes prepared from transiently transfected BHK tk'ts 13 cells (Assay VIII); also called rCTR; rCT
T1 sequence (looked up): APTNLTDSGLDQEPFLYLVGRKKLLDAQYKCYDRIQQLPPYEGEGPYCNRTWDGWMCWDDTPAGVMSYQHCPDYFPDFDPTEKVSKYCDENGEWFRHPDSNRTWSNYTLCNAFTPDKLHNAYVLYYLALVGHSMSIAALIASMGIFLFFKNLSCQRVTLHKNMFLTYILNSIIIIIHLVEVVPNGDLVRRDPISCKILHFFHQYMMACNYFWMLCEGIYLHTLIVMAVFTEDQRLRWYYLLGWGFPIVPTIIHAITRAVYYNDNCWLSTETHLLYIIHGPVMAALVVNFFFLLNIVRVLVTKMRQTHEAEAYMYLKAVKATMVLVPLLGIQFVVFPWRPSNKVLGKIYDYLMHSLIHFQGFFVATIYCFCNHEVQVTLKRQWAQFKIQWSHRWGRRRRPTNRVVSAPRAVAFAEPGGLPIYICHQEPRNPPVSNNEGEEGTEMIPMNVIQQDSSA

T2: human calcitonin receptor (human, UniProt P30988 25-474)
T2 construct: whole, on cells; Membranes prepared from a stably transfected BHK cell line (Assay VII); also called hCTR; hCT
T2 sequence (looked up): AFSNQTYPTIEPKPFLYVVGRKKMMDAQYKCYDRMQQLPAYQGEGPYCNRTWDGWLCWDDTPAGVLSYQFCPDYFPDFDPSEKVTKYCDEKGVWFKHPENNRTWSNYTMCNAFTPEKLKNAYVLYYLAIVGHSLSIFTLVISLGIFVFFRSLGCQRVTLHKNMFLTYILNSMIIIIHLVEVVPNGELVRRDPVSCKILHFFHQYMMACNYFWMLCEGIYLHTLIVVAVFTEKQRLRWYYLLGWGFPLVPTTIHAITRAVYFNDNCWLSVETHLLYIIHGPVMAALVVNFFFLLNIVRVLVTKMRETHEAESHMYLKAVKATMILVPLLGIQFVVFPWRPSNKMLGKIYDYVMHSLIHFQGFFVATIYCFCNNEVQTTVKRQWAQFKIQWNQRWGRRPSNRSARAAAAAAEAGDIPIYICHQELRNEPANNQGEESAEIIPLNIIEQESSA

T3: rat amylin receptor (rat calcitonin receptor + rat RAMP 3) (rat, UniProt P32214 25-516; Q9JJ73 23-147)
T3 construct: whole, on cells; Membranes prepared from transiently transfected BHK tk'ts 13 cells (Assay VI); also called rAmylin-R; rAmylin
T3 sequence (looked up) 1: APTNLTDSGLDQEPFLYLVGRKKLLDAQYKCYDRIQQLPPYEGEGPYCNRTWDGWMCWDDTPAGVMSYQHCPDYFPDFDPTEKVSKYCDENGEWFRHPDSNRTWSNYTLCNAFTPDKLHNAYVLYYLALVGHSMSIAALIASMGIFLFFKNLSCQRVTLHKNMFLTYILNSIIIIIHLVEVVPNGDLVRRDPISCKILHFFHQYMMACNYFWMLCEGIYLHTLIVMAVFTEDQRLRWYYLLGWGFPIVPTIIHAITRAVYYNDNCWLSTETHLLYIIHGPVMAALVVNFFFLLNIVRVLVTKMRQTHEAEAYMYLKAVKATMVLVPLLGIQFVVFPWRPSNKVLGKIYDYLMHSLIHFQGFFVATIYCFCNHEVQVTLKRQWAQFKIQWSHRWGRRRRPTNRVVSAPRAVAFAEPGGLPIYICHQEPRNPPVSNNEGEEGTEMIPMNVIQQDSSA
T3 sequence (looked up) 2: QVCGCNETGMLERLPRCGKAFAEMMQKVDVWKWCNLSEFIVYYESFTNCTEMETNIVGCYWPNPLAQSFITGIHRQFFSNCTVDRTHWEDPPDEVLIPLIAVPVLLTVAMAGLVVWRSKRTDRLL


Columns and labels:
[1] = biological target: T1, rat calcitonin receptor; test: ratio of binding IC50s: rat calcitonin receptor / rat amylin receptor (reference)
[2] = biological target: T2, human calcitonin receptor; test: ratio of binding IC50s: human calcitonin receptor / human amylin receptor (reference)
Outline: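 Scintillation proximity competition binding on cell membranes at 35 ng/μL with SPA beads, in 50 mM Hepes pH 7.4, 1 mM CaCl2, 5 mM MgCl₂, 0.1% OA, 0.02% Tween20. Incubated 120 min at 25° C with shaking. IC₅₀ from one-site competition fit.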

[3] = biological target: T1, rat calcitonin receptor; test: SPA competition vs 125I-calcitonin, membranes of BHK cells with rat calcitonin receptor (Assay VIII)
[4] = biological target: T3, rat amylin receptor (rat calcitonin …); test: SPA competition vs 125I-rat amylin, membranes of BHK cells with rat calcitonin receptor + rat RAMP3 (Assay VI)

Binder	Ratio rCT/rAmylin binding [1]	Ratio hCT/hAmylin binding [2]	IC50 [3] [nM]	IC50 [4] [nM]
K([AEEA-γGlu-C20 diacid])CNTATCATQRLANFLRHSSPNFGAIPSPTNVGPNTY-NH2 (disulfide 2-7; N-terminus assumed; SMILES CC[C@H](C)[C@H](NC(=O)[C@H](C)NC(=O)CNC(=O)[C@H](Cc1ccccc1)NC(=O)[C@H](CC(N)=O)NC(=O)[C@@H]1CCCN1C(=O)[C@H](CO)NC(=O)[C@H](CO)NC(=O)[C@H](Cc1c[nH]cn1)NC(=O)[C@H](CCCNC(=N)N)NC(=O)[C@H](CC(C)C)NC(=O)[C@H](Cc1ccccc1)NC(=O)[C@H](CC(N)=O)NC(=O)[C@H](C)NC(=O)[C@H](CC(C)C)NC(=O)[C@H](CCCNC(=N)N)NC(=O)[C@H](CCC(N)=O)NC(=O)[C@@H](NC(=O)[C@H](C)NC(=O)[C@@H]1CSSC[C@H](NC(=O)[C@@H](N)CCCCNC(=O)COCCOCCNC(=O)CC[C@H](NC(=O)CCCCCCCCCCCCCCCCCCC(=O)O)C(=O)O)C(=O)N[C@@H](CC(N)=O)C(=O)N[C@@H]([C@@H](C)O)C(=O)N[C@@H](C)C(=O)N[C@@H]([C@@H](C)O)C(=O)N1)[C@@H](C)O)C(=O)N1CCC[C@H]1C(=O)N[C@@H](CO)C(=O)N1CCC[C@H]1C(=O)N[C@H](C(=O)N[C@@H](CC(N)=O)C(=O)N[C@H](C(=O)NCC(=O)N1CCC[C@H]1C(=O)N[C@@H](CC(N)=O)C(=O)N[C@H](C(=O)N[C@@H](Cc1ccc(O)cc1)C(N)=O)[C@@H](C)O)C(C)C)[C@@H](C)O, Analogue of human amylin; also called compound 56)	131	42.6	5.26	0.04
K([AEEA-γGlu-C20 diacid])CNTATCATQRLANFLRHSSPNFGAIPSSTPVGSHTY-NH2 (disulfide 2-7; N-terminus assumed; SMILES CC[C@H](C)[C@H](NC(=O)[C@H](C)NC(=O)CNC(=O)[C@H](Cc1ccccc1)NC(=O)[C@H](CC(N)=O)NC(=O)[C@@H]1CCCN1C(=O)[C@H](CO)NC(=O)[C@H](CO)NC(=O)[C@H](Cc1c[nH]cn1)NC(=O)[C@H](CCCNC(=N)N)NC(=O)[C@H](CC(C)C)NC(=O)[C@H](Cc1ccccc1)NC(=O)[C@H](CC(N)=O)NC(=O)[C@H](C)NC(=O)[C@H](CC(C)C)NC(=O)[C@H](CCCNC(=N)N)NC(=O)[C@H](CCC(N)=O)NC(=O)[C@@H](NC(=O)[C@H](C)NC(=O)[C@@H]1CSSC[C@H](NC(=O)[C@@H](N)CCCCNC(=O)COCCOCCNC(=O)CC[C@H](NC(=O)CCCCCCCCCCCCCCCCCCC(=O)O)C(=O)O)C(=O)N[C@@H](CC(N)=O)C(=O)N[C@@H]([C@@H](C)O)C(=O)N[C@@H](C)C(=O)N[C@@H]([C@@H](C)O)C(=O)N1)[C@@H](C)O)C(=O)N1CCC[C@H]1C(=O)N[C@@H](CO)C(=O)N[C@@H](CO)C(=O)N[C@H](C(=O)N1CCC[C@H]1C(=O)N[C@H](C(=O)NCC(=O)N[C@@H](CO)C(=O)N[C@@H](Cc1c[nH]cn1)C(=O)N[C@H](C(=O)N[C@@H](Cc1ccc(O)cc1)C(N)=O)[C@@H](C)O)C(C)C)[C@@H](C)O, Analogue of human amylin; also called compound 57)	135	133	24.4	0.181

The remaining lines, values ahead:

Ratio rCT/rAmylin binding [1]	Ratio hCT/hAmylin binding [2]	IC50 [3] [nM]	IC50 [4] [nM]	Binder
76.6	109	10.3	0.135	K([AEEA-γGlu-C20 diacid])CNTATCATQRLANFLRHSSPNFGAIPSSTNVGPHTY-NH2 (disulfide 2-7; N-terminus assumed; SMILES CC[C@H](C)[C@H](NC(=O)[C@H](C)NC(=O)CNC(=O)[C@H](Cc1ccccc1)NC(=O)[C@H](CC(N)=O)NC(=O)[C@@H]1CCCN1C(=O)[C@H](CO)NC(=O)[C@H](CO)NC(=O)[C@H](Cc1c[nH]cn1)NC(=O)[C@H](CCCNC(=N)N)NC(=O)[C@H](CC(C)C)NC(=O)[C@H](Cc1ccccc1)NC(=O)[C@H](CC(N)=O)NC(=O)[C@H](C)NC(=O)[C@H](CC(C)C)NC(=O)[C@H](CCCNC(=N)N)NC(=O)[C@H](CCC(N)=O)NC(=O)[C@@H](NC(=O)[C@H](C)NC(=O)[C@@H]1CSSC[C@H](NC(=O)[C@@H](N)CCCCNC(=O)COCCOCCNC(=O)CC[C@H](NC(=O)CCCCCCCCCCCCCCCCCCC(=O)O)C(=O)O)C(=O)N[C@@H](CC(N)=O)C(=O)N[C@@H]([C@@H](C)O)C(=O)N[C@@H](C)C(=O)N[C@@H]([C@@H](C)O)C(=O)N1)[C@@H](C)O)C(=O)N1CCC[C@H]1C(=O)N[C@@H](CO)C(=O)N[C@@H](CO)C(=O)N[C@H](C(=O)N[C@@H](CC(N)=O)C(=O)N[C@H](C(=O)NCC(=O)N1CCC[C@H]1C(=O)N[C@@H](Cc1c[nH]cn1)C(=O)N[C@H](C(=O)N[C@@H](Cc1ccc(O)cc1)C(N)=O)[C@@H](C)O)C(C)C)[C@@H](C)O, Analogue of human amylin; also called compound 58)
162	32	44.8	0.276	K([AEEA-γGlu-C20 diacid])CNTATCATQRLAGFLRHSSPNFGAIPSSTPVGSNTY-NH2 (disulfide 2-7; N-terminus assumed; SMILES CC[C@H](C)[C@H](NC(=O)[C@H](C)NC(=O)CNC(=O)[C@H](Cc1ccccc1)NC(=O)[C@H](CC(N)=O)NC(=O)[C@@H]1CCCN1C(=O)[C@H](CO)NC(=O)[C@H](CO)NC(=O)[C@H](Cc1c[nH]cn1)NC(=O)[C@H](CCCNC(=N)N)NC(=O)[C@H](CC(C)C)NC(=O)[C@H](Cc1ccccc1)NC(=O)CNC(=O)[C@H](C)NC(=O)[C@H](CC(C)C)NC(=O)[C@H](CCCNC(=N)N)NC(=O)[C@H](CCC(N)=O)NC(=O)[C@@H](NC(=O)[C@H](C)NC(=O)[C@@H]1CSSC[C@H](NC(=O)[C@@H](N)CCCCNC(=O)COCCOCCNC(=O)CC[C@H](NC(=O)CCCCCCCCCCCCCCCCCCC(=O)O)C(=O)O)C(=O)N[C@@H](CC(N)=O)C(=O)N[C@@H]([C@@H](C)O)C(=O)N[C@@H](C)C(=O)N[C@@H]([C@@H](C)O)C(=O)N1)[C@@H](C)O)C(=O)N1CCC[C@H]1C(=O)N[C@@H](CO)C(=O)N[C@@H](CO)C(=O)N[C@H](C(=O)N1CCC[C@H]1C(=O)N[C@H](C(=O)NCC(=O)N[C@@H](CO)C(=O)N[C@@H](CC(N)=O)C(=O)N[C@H](C(=O)N[C@@H](Cc1ccc(O)cc1)C(N)=O)[C@@H](C)O)C(C)C)[C@@H](C)O, Analogue of human amylin; also called compound 71)
94.3	120	477	5.05	K([AEEA-γGlu-C20 diacid])CNTATCATQRLAHFLRHSSPNFGAIPSSTNVGRNTY-NH2 (disulfide 2-7; N-terminus assumed; SMILES CC[C@H](C)[C@H](NC(=O)[C@H](C)NC(=O)CNC(=O)[C@H](Cc1ccccc1)NC(=O)[C@H](CC(N)=O)NC(=O)[C@@H]1CCCN1C(=O)[C@H](CO)NC(=O)[C@H](CO)NC(=O)[C@H](Cc1c[nH]cn1)NC(=O)[C@H](CCCNC(=N)N)NC(=O)[C@H](CC(C)C)NC(=O)[C@H](Cc1ccccc1)NC(=O)[C@H](Cc1c[nH]cn1)NC(=O)[C@H](C)NC(=O)[C@H](CC(C)C)NC(=O)[C@H](CCCNC(=N)N)NC(=O)[C@H](CCC(N)=O)NC(=O)[C@@H](NC(=O)[C@H](C)NC(=O)[C@@H]1CSSC[C@H](NC(=O)[C@@H](N)CCCCNC(=O)COCCOCCNC(=O)CC[C@H](NC(=O)CCCCCCCCCCCCCCCCCCC(=O)O)C(=O)O)C(=O)N[C@@H](CC(N)=O)C(=O)N[C@@H]([C@@H](C)O)C(=O)N[C@@H](C)C(=O)N[C@@H]([C@@H](C)O)C(=O)N1)[C@@H](C)O)C(=O)N1CCC[C@H]1C(=O)N[C@@H](CO)C(=O)N[C@@H](CO)C(=O)N[C@H](C(=O)N[C@@H](CC(N)=O)C(=O)N[C@H](C(=O)NCC(=O)N[C@@H](CCCNC(=N)N)C(=O)N[C@@H](CC(N)=O)C(=O)N[C@H](C(=O)N[C@@H](Cc1ccc(O)cc1)C(N)=O)[C@@H](C)O)C(C)C)[C@@H](C)O, Analogue of human amylin; also called compound 84)
